Assay results as given in the RNAGym collection of RNA variant scans (doi:10.1073/pnas.2313332121).
This sample holds only a part of the variants without activity.

B1: TPR 5TU (parent)
chain: GGAUCUUCUCGAUCUAACAAAAAAGACAAAUCUGCCACAAAGCUUGAGAGCAUCUUCGGAUGCAGAGGCGGCAGCCUUCGGUGGCGCGAUAGCGCCAACGUUCUCAACUAUGACACGCAAAACGCGUGCUCCGUUGAAUGGAGUUUAUCAUG

Variants of: B1
Test: polymerase ribozyme fitness, log enrichment relative to wild type (log ratio); higher = more active; in vitro selection for triplet polymerase activity
In short: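 Each subunit of a heterodimeric triplet polymerase ribozyme was mutagenized into a library by PCR, transcribed, and subjected to one round of in vitro selection, run in triplicate. Libraries were annealed with a biotinylated primer, the partner subunit and triplets, incubated frozen at −7 °C, and extended constructs were gel-excised, captured on streptavidin beads and recovered by RT-PCR. Input and output libraries were sequenced on Illumina, keeping genotypes with ≥10 input reads and ≥1 read per output. Fitness is log base 2 of genotype enrichment divided by wild-type enrichment, from inverse-variance-weighted replicate averages.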

Row | Variant | polymerase ribozyme fitness (log ratio)
1 | A22G C51U U78G C95U A107G U146C | ≤ -4.2
2 | A22U C54G C95U | -2.06
3 | A22U A37G A49C G62U C75G C76A G81U C85G G128C | ≤ -4.2
4 | A22G A91U C95U U109C A137U | ≤ -4.2
5 | A22U C85A | -0.394
6 | A22G C27A A29G C38U G50C C72U G84A C118A | ≤ -4.2
7 | A22C U44A C87U C103U | ≤ -4.2
8 | A22U A49C C69G G70C U101A | ≤ -4.2
9 | A22G C85U | -0.836
10 | A22G C85G | -2.32
11 | A22G A52U C85U U109G | -3.97
12 | A22U A30C G81A C116G | -3.8
13 | A22G C76U | 0.868
14 | A22G A28C U33G C93A G94C C95U A121U | ≤ -4.2
15 | A22G A40C U139G | 0.649
16 | A22U C69A A91U | ≤ -4.2
17 | A22U A29G A150G | ≤ -4.2
18 | A22U C69G C75U C93U U101C U127A | ≤ -4.2
19 | A22G G59A | -0.246
20 | A22G C32U A37G A41C G71A C95U C96G U139C | ≤ -4.2
21 | A22G C96U C114U A115U | ≤ -4.2
22 | A22U C54U | 0.174
23 | A22U A26C U45A G48U U82G C87G C129G | ≤ -4.2
24 | A22U A120G U144A | 0.42

Row | Variant | polymerase ribozyme fitness (log ratio)
25 | A22G G70U C118U | -3.77
26 | A22U A41G C93U A107U C108U C129U G133U A142C | ≤ -4.2
27 | A22G A52G G128C | -3.48
28 | A22C U55G G67A U78A C93G C99A C149G | ≤ -4.2
29 | A22C U55G A60G U101A C118G | -0.937
30 | A22G U130A | -1.59
31 | A22C G59C G83A A89C | -1.16
32 | A22C G50A U55G U77C G94A | -4.04
33 | A22U A39U A41G A52C G83U G94A G152C | -4.02
34 | A22U A37G A41G G48C G94U | ≤ -4.2
35 | A22C U61A G88A A107C A110C C123G G140A | ≤ -4.2
36 | A22U A97G A122G | 0.332
37 | A22G A24U C63G | 2.39
38 | A22G A110G | -3.28
39 | A22C U78C A98G U102G U151G | ≤ -4.2
40 | A22U A39U A40C A66C C105U | ≤ -4.2
41 | A22U C54U U55A | 0.0331
42 | A22G A39G U61A G88C A121C U146G | ≤ -4.2
43 | A22U C57G G58A C114G | -2.5
44 | A22G G83A A91U G100U | ≤ -4.2
45 | A22G C36U C87U | -3.06
46 | A22G A23U C35A C75A C95G | ≤ -4.2
47 | A22U C32G U134C | ≤ -4.2
48 | A22C G50U G67U G74U G92C C149G | ≤ -4.2

Row | Variant | polymerase ribozyme fitness (log ratio)
49 | A22U A24U G58C A89U G143C | -2.7
50 | A22U A30G G46C G50C A52C U55G G83A G94A | ≤ -4.2
51 | A22U A115C | -0.374
52 | A22U C87A | -4.14
53 | A22U C87U | 0.455
54 | A22U A97G | 0.0508
55 | A22G A28G A52U G80A C93G U101C A113U G140U | ≤ -4.2
56 | A22U A39U C57U G59A U101G U148C A150C | ≤ -4.2
57 | A22G A29U U77C C85G C95U C103U C114G C125U | ≤ -4.2
58 | A22U C51U A137G A147C | -2.48
59 | A22C G84A G136C C149A | ≤ -4.2
60 | A22U A40U G42C C75A U90G | ≤ -4.2
61 | A22U C57A | -0.719
62 | A22G G83A C105A | -3.83
63 | A22G A41C G50A C95U U101G | -1.78
64 | A22G A106G A122C G124U | -0.81
65 | A22C U53A C57U G100A A119G A142C G152A | ≤ -4.2
66 | A22G G42C A52C G58A G68U C87G A142C | ≤ -4.2
67 | A22C G25A C51U A66C C85G C93U C116A | ≤ -4.2
68 | A22U A41G G81A C87U C99U A119G G152A | -2.3
69 | A22G A52U G84A C123A | -2.11
70 | A22G A41G A120G G141U | 1.45
71 | A22U C35G C76G G92A C105U | ≤ -4.2
72 | A22U A41U | 0.0369

Row | Variant | polymerase ribozyme fitness (log ratio)
73 | A22C U53G G94A A119G | -1.81
74 | A22U A37C G83C C114G | -3.92
75 | A22U A23G G50C G74C | ≤ -4.2
76 | A22G G88A C96U | ≤ -4.2
77 | A22U C32A G42A G48A A52G U148A | ≤ -4.2
78 | A22U A23G G50A G86A C116G U130G C131G | ≤ -4.2
79 | A22G G59A A60C C85A G94A C105U G126A | -4.1
80 | A22G G86C | -1.67
81 | A22G G83C A98U C114U | -3.19
82 | A22U A30U C32A U78G G88A G117U U139G | ≤ -4.2
83 | A22G C54U C85U C116G | 1.12
84 | A22G G124A | 0.539
85 | A22C U33C G88A A97C C131G | ≤ -4.2
86 | A22G A41C G62U C93A C95U C105A G112U C123G U134C G140A G141U | ≤ -4.2
87 | A22G A24U U55A C75G C76A C95G G124U G136U | ≤ -4.2
88 | A22U A28G | -3.35
89 | A22G C72A G86C C87A A110U U127C C132A U146G | ≤ -4.2
90 | A22U A41U A60U A106U | -4.16
91 | A22U A28U C57U U77G C85G G92U | ≤ -4.2
92 | A22U A40G G84A A119G | -2.75
93 | A22U C36A G83A U145A | ≤ -4.2
94 | A22G C108U | -4.08
95 | A22G C27U A47U U56G C57G U77A C93A G143A | ≤ -4.2
96 | A22U A28U U45G G50U C103G | ≤ -4.2

Row | Variant | polymerase ribozyme fitness (log ratio)
97 | A22U A52C G65A C132G G140U | -3.17
98 | A22C G92C | -1.73
99 | A22U C76G C87G U101G G140C | -4.19
100 | A22U C54U G81A G83A U90A C95U G141C | ≤ -4.2
101 | A22G C54U G58A G59A C103G | -1.91
102 | A22G C108G C123G A150G | ≤ -4.2
103 | A22C G46C G83C | -3.01
104 | A22G U55G C57U G84U C85A | -0.696
105 | A22G A30U C36G G83C U146G | ≤ -4.2
106 | A22C U33G G50C U78A C87A G126A U135A U144G | -3.83
107 | A22G A40G A41C C57U A107U A120U | ≤ -4.2
108 | A22U A47U C96U U148A | -4.14
109 | A22G U31G C54U C96G A115G C123G A137C | ≤ -4.2
110 | A22U A47U A49G G133C A142U | ≤ -4.2
111 | A22C U144G | 0.903
112 | A22U C35U A47U G59U G67A C132A G136U | ≤ -4.2
113 | A22C U53A U56A A73G | -1.97
114 | A22U A66C C85G | ≤ -4.2
115 | A22G C85G A150G | -3.09
116 | A22C G58C G70U U134C | -3.68
117 | A22U A47C C54G G58U | -0.551
118 | A22G G84A A91C C103G U104G | ≤ -4.2
119 | A22U C75G | -3.65
120 | A22C G141U | 1.81

Row | Variant | polymerase ribozyme fitness (log ratio)
121 | A22U A73C G92U A110G U111C G141C | ≤ -4.2
122 | A22G C72G C87U C93A C99A | ≤ -4.2
123 | A22G C93U | -0.637
124 | A22G C93A | -1.55
125 | A22U C87U G141U | 1.15
126 | A22G C132U | -0.512
127 | A22G C132G | -3.69
128 | A22C U45A | -2.58
129 | A22G U33G | -3.24
130 | A22G C57A G59C A60C | -2.03
131 | A22U A49U | -0.913
132 | A22C G50A C63A C69G A89G U127G G141U A142U | ≤ -4.2
133 | A22U A52G A91C U135G | ≤ -4.2
134 | A22U A26C G62C C87A C116G A147U | ≤ -4.2
135 | A22U C27U C36U A98U | -3.64
136 | A22G C36A G48A C95G G140C | ≤ -4.2
137 | A22C U61C G80A A119U C125A | -2.69
138 | A22U A47U U53G U55A C57U G68A G86C C99U A138C U148G | ≤ -4.2
139 | A22G A39C U56A G80U | ≤ -4.2
140 | A22U C54U G92U A147U | 0.944
141 | A22U A29G G70A | ≤ -4.2
142 | A22G U31C U44A C95G A150G | ≤ -4.2
143 | A22G A113C | -2.12
144 | A22U A28G G80C C99U C108A G140C | ≤ -4.2

Row | Variant | polymerase ribozyme fitness (log ratio)
145 | A22G C36G G92A A137G | ≤ -4.2
146 | A22G U33C C35U A66C | ≤ -4.2
147 | A22G A29U G50A U56G C87U C118U | ≤ -4.2
148 | A22G C36G G81U A89C A97C C116A | ≤ -4.2
149 | A22U A26G A28C A37U U56A C96U A98U | ≤ -4.2
150 | A22G G58C A119U A122U | 0.574
151 | A22U A49G C54U C85U | -0.721
152 | A22U C38U C57U G94C G126U | -0.0445
153 | A22C G34C U55G A91C G92U | ≤ -4.2
154 | A22U C76U U102G | -3.01
155 | A22C U55A A97G G143C | -3.02
156 | A22G A40G A52C C75U C99A A107G C108U U134A | ≤ -4.2
157 | A22U C32A C36A C57U C96G C116U U139G | ≤ -4.2
158 | A22G G50U U56G G58U C76U A122G | -4.16
159 | A22G C54U U56A C76U G94C U145A | -0.624
160 | A22U A26G A49U U102C A138G U144A | ≤ -4.2
161 | A22C U56A C57G G86U A142G | -3.37
162 | A22G C85U C95G U135G | -3.76
163 | A22G U55A A89C | -0.257
164 | A22G G58A A120G C123A C129G | -3.06
165 | A22U A30G G46C G50C A52C U55G C72U U82A C87A G88C U90A C99U | ≤ -4.2
166 | A22C G92C U101G C108A A120U | -4.07
167 | A22U C57A C96G A97U C118G A119C | -2.85
